Source: US20180155451A1 (published 2018)

T1: FcγRIIb extracellular domain with C-terminal His tag (human, UniProt P31994 43-217)
T1 construct: extracellular domain; Soluble receptor expressed in FreeStyle293 cells; analyte in Biacore; also called FcgRIIb; 2b; not shown: His tag at the C terminus
T1 sequence (looked up): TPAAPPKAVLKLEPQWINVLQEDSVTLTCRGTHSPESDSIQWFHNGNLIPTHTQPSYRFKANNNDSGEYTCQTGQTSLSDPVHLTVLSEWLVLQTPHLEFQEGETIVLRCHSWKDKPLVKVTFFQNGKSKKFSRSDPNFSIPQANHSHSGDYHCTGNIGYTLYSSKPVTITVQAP

T2: FcγRIIa H (FcγRIIa type H, His at position 131), extracellular domain with C-terminal His tag (human, UniProt P12318 34-217)
T2 construct: extracellular domain; Expressed in FreeStyle293 cells; analyte in the Biacore assay; also called FcgRIIa H; 2aH; not shown: His tag at the C terminus
T2 sequence (looked up): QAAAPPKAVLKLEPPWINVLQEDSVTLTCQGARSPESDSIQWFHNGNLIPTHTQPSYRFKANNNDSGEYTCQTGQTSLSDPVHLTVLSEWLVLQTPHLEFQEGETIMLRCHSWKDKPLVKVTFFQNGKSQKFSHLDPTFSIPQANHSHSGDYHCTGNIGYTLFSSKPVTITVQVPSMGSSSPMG

T3: FcγRIIb, extracellular domain with C-terminal His tag (human, UniProt P31994 43-217)
T3 construct: extracellular domain; Expressed in FreeStyle293 cells; analyte in the Biacore assay; also called FcgRIIb; 2b; not shown: His tag at the C terminus
T3 sequence (looked up): T1 sequence (looked up)

B1: GpH7-A5/GpH7-B3 variant P329_13S/GpL16-k0 (antibody, human IgG1, kappa)
heavy 1: not shown
heavy 2: not shown
light: DIVMTQSPLSLPVTPGEPASISCQASESLVHSNRNTYLHWYLQKPGQSPQLLIYKVSNRFSGVPDRFSGSGSGTDFTLKISRVEAEDVGVYYCSQNTHVPPTFGQGTKVEIERTVAAPSVFIFPPSDEQLKSGTASVVCLLNNFYPREAKVQWKVDNALQSGNSQESVTEQDSKDSTYSLSSTLTLSKADYEKHKVYACEVTHQGLSSPVTKSFNRGEC
notes: He Ab: heterodimerized anti-glypican-3 IgG1, substitution in one H chain only; also called He Ab P329S
B2: GpH7-A5/GpH7-B3 variant P329_01G/GpL16-k0 (antibody, human IgG1, kappa)
heavy 1: not shown
heavy 2: not shown
light: B1 light
notes: He Ab; IgG1; mutation in one H chain only; also called He Ab
B3: GpH7-A5/GpH7-B3 variant A330_03V/GpL16-k0 (antibody, human IgG1, kappa)
heavy 1: not shown
heavy 2: not shown
light: B1 light
notes: as for B2
B4: GpH7-A5/GpH7-B3 variant T335_12R/GpL16-k0 (antibody, human IgG1, kappa)
heavy 1: not shown
heavy 2: not shown
light: B1 light
notes: He Ab: heterodimerized anti-glypican-3 IgG1, substitution in one H chain only; also called He Ab T335R
B5: GpH7-A5/GpH7-B3 variant P329_16H/GpL16-k0 (antibody, human IgG1, kappa)
heavy 1: not shown
heavy 2: not shown
light: B1 light
notes: He Ab: heterodimerized anti-glypican-3 IgG1, substitution in one H chain only; also called He Ab P329H
B6: GpH7-A5/GpH7-B3 variant I332_18N/GpL16-k0 (antibody, human IgG1, kappa)
heavy 1: not shown
heavy 2: not shown
light: B1 light
notes: as for B2
B7: GpH7-A5/GpH7-B3 variant P329_20W/GpL16-k0 (antibody, human IgG1, kappa)
heavy 1: not shown
heavy 2: not shown
light: B1 light
notes: He Ab: heterodimerized anti-glypican-3 IgG1, substitution in one H chain only; also called He Ab P329W
B8: GpH7-A5/GpH7-B3 variant P329_15Y/GpL16-k0 (antibody, human IgG1, kappa)
heavy 1: not shown
heavy 2: not shown
light: B1 light
notes: He Ab: heterodimerized anti-glypican-3 IgG1, substitution in one H chain only; also called He Ab P329Y
B9: GpH7-A5/GpH7-B3 variant E333_13S/GpL16-k0 (antibody, human IgG1, kappa)
heavy 1: not shown
heavy 2: not shown
light: B1 light
notes: as for B2
B10: GpH7-A5/GpH7-B3 variant A330_18N/GpL16-k0 (antibody, human IgG1, kappa)
heavy 1: not shown
heavy 2: not shown
light: B1 light
notes: as for B2
B11: GpH7-A5/GpH7-B3 variant I336_19Q/GpL16-k0 (antibody, human IgG1, kappa)
heavy 1: not shown
heavy 2: not shown
light: B1 light
notes: as for B2
B12: GpH7-A5/GpH7-B3 variant N325_11K/GpL16-k0 (antibody, human IgG1, kappa)
heavy 1: not shown
heavy 2: not shown
light: B1 light
notes: as for B2
B13: GpH7-A5/GpH7-B3 variant A327_19Q/GpL16-k0 (antibody, human IgG1, kappa)
heavy 1: not shown
heavy 2: not shown
light: B1 light
notes: as for B2
B14: GpH7-A5/GpH7-B3 variant E333_11K/GpL16-k0 (antibody, human IgG1, kappa)
heavy 1: not shown
heavy 2: not shown
light: B1 light
notes: as for B2
B15: GpH7-A5/GpH7-B3 variant P329_14T/GpL16-k0 (antibody, human IgG1, kappa)
heavy 1: not shown
heavy 2: not shown
light: B1 light
notes: He Ab: heterodimerized anti-glypican-3 IgG1, substitution in one H chain only; also called He Ab P329T
B16: GpH7-A5/GpH7-B3 variant P329_19Q/GpL16-k0 (antibody, human IgG1, kappa)
heavy 1: not shown
heavy 2: not shown
light: B1 light
notes: He Ab: heterodimerized anti-glypican-3 IgG1, substitution in one H chain only; also called He Ab P329Q
B17: GpH7-A5/GpH7-B3 variant P331_01G/GpL16-k0 (antibody, human IgG1, kappa)
heavy 1: not shown
heavy 2: not shown
light: B1 light
notes: He Ab: heterodimerized anti-glypican-3 IgG1, substitution in one H chain only; also called He Ab P331G

Tests used:
[1] = biological target: T4, FcγRIa extracellular domain with C-terminal His tag (human, UniProt P12314 16-292); test: SPR (Biacore); He/Con_1a divided by He/Con_2b (FcγRIIb)
T4 construct: extracellular domain; Soluble receptor expressed in FreeStyle293 cells; analyte in Biacore; also called FcgRI; FcgRIa; not shown: His tag at the C terminus
T4 sequence (P12314 16-292): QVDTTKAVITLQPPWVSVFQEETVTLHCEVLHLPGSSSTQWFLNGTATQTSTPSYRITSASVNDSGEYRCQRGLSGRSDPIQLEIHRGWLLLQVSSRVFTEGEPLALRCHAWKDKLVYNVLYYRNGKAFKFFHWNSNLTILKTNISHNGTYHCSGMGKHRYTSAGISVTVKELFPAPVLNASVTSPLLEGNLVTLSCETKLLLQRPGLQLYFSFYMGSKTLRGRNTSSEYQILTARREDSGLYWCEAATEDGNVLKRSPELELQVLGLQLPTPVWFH
Summary of the method: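 Measurements were made at 25 °C with HBS-EP+ as running buffer. Each antibody sat on a chip bearing its antigen peptide, amine-coupled or streptavidin-bound, while FcγR was passed over; 10 mM glycine-HCl, pH 1.5 removed captured antibody.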

[2] = biological target: T4, FcγRIa extracellular domain with …; test: SPR (Biacore), antibody captured on antigen peptide chip, FcγR as analyte; binding relative to GpH7-A5/GpH7-B3/GpL16-k0 = 100
[3] = biological target: T1, FcγRIIb extracellular domain with …; test: as above
[4] = biological target: T2, FcγRIIa H (FcγRIIa type H, His at …); test: SPR Biacore; He/Con_2aH divided by He/Con_2b (reference: FcgRIIb)
[5] = biological target: T3, FcγRIIb, extracellular domain with …; test: SPR Biacore, captured antibody, FcgR analyte; GpH7-A5/GpH7-B3/GpL16-k0 = 100
[6] = biological target: T2, FcγRIIa H (FcγRIIa type H, His at …); test: as above

Row | Binder | He_1a/2b (Ia/IIb) [1] | He/Con_1a (Ia binding) [2] | He/Con_2b (IIb binding) [3] | He_2aH/2b (IIaH/IIb) [4] | He/Con_2b [5] | He/Con_2aH [6]
1 | B1 | 2.27 | 93.3 % of control (control = 100) | 41 % of control (control = 100) | – | – | –
2 | B2 | – | – | – | 1.32 | 41.7 % of HeCon Ab | 54.9 % of HeCon Ab
3 | B3 | – | – | – | 1.52 | 52.4 % of HeCon Ab | 79.7 % of HeCon Ab
4 | B4 | 1.23 | 113 % of control (control = 100) | 91.9 % of control (control = 100) | – | – | –
5 | B5 | 2.45 | 95.6 % of control (control = 100) | 39.1 % of control (control = 100) | – | – | –
6 | B6 | – | – | – | 1.22 | 89.9 % of HeCon Ab | 110 % of HeCon Ab
7 | B7 | 2.15 | 96.9 % of control (control = 100) | 45.1 % of control (control = 100) | – | – | –
8 | B8 | 2.09 | 95.6 % of control (control = 100) | 45.7 % of control (control = 100) | – | – | –
9 | B9 | – | – | – | 1.23 | 81.8 % of HeCon Ab | 101 % of HeCon Ab
10 | B10 | – | – | – | 1.28 | 63.7 % of HeCon Ab | 81.6 % of HeCon Ab
11 | B11 | – | – | – | 1.27 | 58.2 % of HeCon Ab | 73.7 % of HeCon Ab
12 | B12 | – | – | – | 1.55 | 10.4 % of HeCon Ab | 16.1 % of HeCon Ab
13 | B13 | – | – | – | 1.24 | 54.2 % of HeCon Ab | 67.3 % of HeCon Ab
14 | B14 | – | – | – | 1.22 | 80.6 % of HeCon Ab | 98.1 % of HeCon Ab
15 | B15 | 2.37 | 89.7 % of control (control = 100) | 37.9 % of control (control = 100) | – | – | –
16 | B16 | 2.31 | 70.7 % of control (control = 100) | 30.7 % of control (control = 100) | – | – | –
17 | B17 | 1.88 | 85.3 % of control (control = 100) | 45.4 % of control (control = 100) | – | – | –
